# Experimental data published in publication PMC4865804.
# B1: ringhalexin (Ringhals extrinsic tenase complex inhibitor) (natural protein)
# chain: RLCLSDYSIFSETIEICPEGHNYCFKKFPKGITRLPWVIRGCAATCPKPEAQVYVDCCARDKCNR
# Columns and labels:
# [1] = biological target: extrinsic tenase complex (FVIIa/TF_(PCPS)), the [E] complex (human) (UniProt P13726); experiment: enzyme inhibition kinetics (mixed-type fit, secondary plots); FX activation by FVIIa (10 pM) in complex with recombinant human TF (Innovin); FX 0.58-50 nM; ringhalexin 50-150 nM; 50 mM HEPES pH 7.4, 140 mM NaCl, 5 mM CaCl2, 1% BSA, 37 °C; FXa read by hydrolysis of 500 μM S-2222 at 405 nm
# [2] = biological target: [ES] complex (FVIIa/TF_(PCPS)/FX) (UniProt P13726); experiment: as above
# [3] = biological target: extrinsic tenase complex (FVIIa/TF_(PCPS)), the [E] complex (human) (UniProt P13726)
binder,measurement,setting,value
B1,Ki,[1],84.2 nM
same,Ki' (inhibitor constant for the [ES] complex),[2],152 nM
same,"inhibition of FX activation by the reconstituted extrinsic tenase complex (FXa formed, measured by S-2222 hydrolysis); ringhalexin 100 pM to 3 μM, FX 30 nM",[3],124 nM
